Test results from article PMC8881611, “A mechanism of origin licensing control through autoinhibition of S. cerevisiae ORC·DNA·Cdc6” (Nature Communications, 2022).

Tests used:
[1] = molecular target: T1, ScORC·DNA·Cdc6 with MBP-tagged ORC holding Orc6 ΔCBN (Orc6Δ1-120), ORC phosphorylated by CDK (S. cerevisiae, UniProt P54784 1-914; P32833 1-620; P54790 1-616; P54791 1-529; P50874 1-479; P38826 …, ORC treated with CDK; phosphorylated sites not printed | ORC treated with CDK; phosphorylated sites not given); assay: pull-down; amylose pulldown, ORC with MBP-tagged Orc4 as bait; 0.5 uM ScORC, 0.5 uM 84 bp ARS1 dsDNA, 1 uM ScCdc6, 10 uM ScMcm7 (titrations 1.5, 5, 10 uM), 2 mM ATPγS; 25 mM HEPES pH 7.5, 300 mM potassium acetate, 10 mM magnesium acetate, 1 mM DTT; on ice; maltose elution, Coomassie-stained SDS-PAGE; settings: both partners purified
T1 construct: Orc1, S. cerevisiae, wild type; Orc2, S. cerevisiae, wild type; Orc3, S. cerevisiae, wild type; Orc4, S. cerevisiae, wild type; Orc5, S. cerevisiae, wild type; Orc6, S. cerevisiae, truncation Orc6Δ1-120 (lacks the N-terminal cyclin box fold); Cdc6, S. cerevisiae, wild type; ORC phosphorylated by CDK before assembly with DNA, Cdc6 and ATPγS; also called Orc6 ΔCBN, CDK; Orc6^ΔN120; source: MBP-ORC: …

[2] = molecular target: T2, ScORC·DNA·Cdc6 with MBP-tagged ORC holding Orc6 ΔCBN/Δlinker (Orc6Δ1-269), ORC dephosphorylated with λ … (S. cerevisiae, UniProt P54784 1-914; P32833 1-620; P54790 1-616; P54791 1-529; P50874 1-479; P38826 …, ORC treated with λ phosphatase); assay: as above; settings: both partners purified
T2 construct: Orc1, S. cerevisiae, wild type; Orc2, S. cerevisiae, wild type; Orc3, S. cerevisiae, wild type; Orc4, S. cerevisiae, wild type; Orc5, S. cerevisiae, wild type; Orc6, S. cerevisiae, truncation Orc6Δ1-269 (lacks the N-terminal cyclin box fold and the flexible linker); Cdc6, S. cerevisiae, wild type; ORC dephosphorylated before assembly with DNA, Cdc6 and ATPγS; also called Orc6 ΔCBN/Δlinker, λ …

B1: S. cerevisiae Mcm7 (ScMcm7) (natural protein, UniProt P38132 1-845, looked up)
chain: MSAALPSIQLPVDYNNLFNEITDFLVTFKQDTLSSDATRNENEDENLDAENIEQHLLEKGPKYMAMLQKVANRELNSVIIDLDDILQYQNEKFLQGTQADDLVSAIQQNANHFTELFCRAIDNNMPLPTKEIDYKDDVLDVILNQRRLRNERMLSDRTNEIRSENLMDTTMDPPSSMNDALREVVEDETELFPPNLTRRYFLYFKPLSQNCARRYRKKAISSKPLSVRQIKGDFLGQLITVRGIITRVSDVKPAVEVIAYTCDQCGYEVFQEVNSRTFTPLSECTSEECSQNQTKGQLFMSTRASKFSAFQECKIQELSQQVPVGHIPRSLNIHVNGTLVRSLSPGDIVDVTGIFLPAPYTGFKALKAGLLTETYLEAQFVRQHKKKFASFSLTSDVEERVMELITSGDVYNRLAKSIAPEIYGNLDVKKALLLLLVGGVDKRVGDGMKIRGDINVCLMGDPGVAKSQLLKAICKISPRGVYTTGKGSSGVGLTAAVMKDPVTDEMILEGGALVLADNGICCIDEFDKMDESDRTAIHEVMEQQTISISKAGINTTLNARTSILAAANPLYGRYNPRLSPLDNINLPAALLSRFDILFLMLDIPSRDDDEKLAEHVTYVHMHNKQPDLDFTPVEPSKMREYIAYAKTKRPVMSEAVNDYVVQAYIRLRQDSKREMDSKFSFGQATPRTLLGIIRLSQALAKLRLADMVDIDDVEEALRLVRVSKESLYQETNKSKEDESPTTKIFTIIKKMLQETGKNTLSYENIVKTVRLRGFTMLQLSNCIQEYSYLNVWHLINEGNTLKFVDDGTMDTDQEDSLVSTPKLAPQTTASANVSAQDSDIDLQDA
notes: Mcm7, S. cerevisiae; migrates as a doublet on SDS-PAGE; source: E. coli BL21 RIL, purified (HisTrap, amylose, TEV cleavage, HisTrap, gel filtration); not shown: His6, N-terminal, cleaved; MBP, N-terminal, cleaved
binding result [1]: binds | binding result [2]: binds
